Results as given in publication PMC11074019.

Assays:
[1] = biological target: Transient receptor potential channel ankyrin 1 (TRPA1) (human (endogenous in MDA-MB-231)) (UniProt O75762)
[2] = biological target: Transient receptor potential channel ankyrin 1 (TRPA1) (human (endogenous in MDA-MB-231)) (UniProt O75762); remark: listed apart in the source

Chain of UniProt O75762 (O75762 whole entry): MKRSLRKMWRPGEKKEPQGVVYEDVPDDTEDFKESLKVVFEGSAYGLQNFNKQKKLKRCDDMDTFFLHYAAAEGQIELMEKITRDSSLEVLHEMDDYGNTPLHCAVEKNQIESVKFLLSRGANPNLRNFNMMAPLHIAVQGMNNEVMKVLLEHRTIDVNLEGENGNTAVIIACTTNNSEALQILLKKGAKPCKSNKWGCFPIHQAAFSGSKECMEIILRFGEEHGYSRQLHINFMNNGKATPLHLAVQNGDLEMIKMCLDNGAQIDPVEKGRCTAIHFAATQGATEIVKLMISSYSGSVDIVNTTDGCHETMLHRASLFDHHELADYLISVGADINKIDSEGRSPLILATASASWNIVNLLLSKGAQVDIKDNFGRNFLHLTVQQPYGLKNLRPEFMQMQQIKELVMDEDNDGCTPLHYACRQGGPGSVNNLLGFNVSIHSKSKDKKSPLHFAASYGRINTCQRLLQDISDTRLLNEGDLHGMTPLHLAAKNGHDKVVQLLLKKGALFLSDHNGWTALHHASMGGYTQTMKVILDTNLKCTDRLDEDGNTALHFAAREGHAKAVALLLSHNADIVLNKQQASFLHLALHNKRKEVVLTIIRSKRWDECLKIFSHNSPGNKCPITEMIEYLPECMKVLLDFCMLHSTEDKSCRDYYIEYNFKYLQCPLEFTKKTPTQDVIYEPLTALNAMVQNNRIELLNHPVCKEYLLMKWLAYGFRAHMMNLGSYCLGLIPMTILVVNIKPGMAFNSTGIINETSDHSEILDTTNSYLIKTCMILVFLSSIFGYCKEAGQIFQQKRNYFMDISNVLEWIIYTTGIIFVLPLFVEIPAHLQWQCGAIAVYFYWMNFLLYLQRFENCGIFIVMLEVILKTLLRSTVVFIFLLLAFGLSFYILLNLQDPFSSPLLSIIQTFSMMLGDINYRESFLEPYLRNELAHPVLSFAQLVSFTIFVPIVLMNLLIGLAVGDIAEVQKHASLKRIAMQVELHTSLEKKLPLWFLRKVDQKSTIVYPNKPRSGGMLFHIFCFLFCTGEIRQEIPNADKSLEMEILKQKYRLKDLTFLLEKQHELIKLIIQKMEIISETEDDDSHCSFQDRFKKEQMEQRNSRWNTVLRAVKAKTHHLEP

inward conductance (IG TRPA1) in inside-out patches of MDA-MB-231 CTR cells, without vs with NCS-1 [1]: 104 pS | inward conductance (IG TRPA1) in inside-out patches of SH-SY5Y cells, without vs with NCS-1 [1]: 110 pS | outward conductance (OG TRPA1) in inside-out patches of MDA-MB-231 CTR cells, without vs with NCS-1 [1]: 155 pS | outward conductance (OG TRPA1) in inside-out patches of SH-SY5Y cells, without vs with NCS-1 [1]: 169 pS | open probability (Po) of AITC-activated TRPA1 single channels in inside-out patches of MDA-MB-231 CTR cells, with NCS-1 (10 μM) vs without [2]: 0.883
Substance: Recombinant rat NCS-1 (Ca2+-free) (from UniProt P62168 1-190) (natural protein)
